Experimental data reported in US20240133870A1, “COMBINED TREATMENT FOR CANCER” (Yeda Research and Development Co. Ltd., priority 2021, published 2024).

Legend:
Format in all cases: cell-based, human
[1] = test system: GFP-labeled cancer cell lines; test: Effect of secreted factors on proliferation under DMSO (pScore); settings: DMSO control experiments
Excerpt: FIGS. 8A-D show schematic overviews of rScore and bScore calculation. Calculation of rScore and bScore is derived from the data points A, B, C, D marked on GFP-level curves of cells under different treatment conditions, as shown in FIGS. 8A-B. As all cells used in the screen are constitutively expressing GFP, GFP level was used as a proxy for the number of cells. […] Proliferation score (pScore) describes the percent of change in the number of cells after seven days of treatment with a given factor. Rescue score (rScore) quantifies the effect of a given factor on the resistance to a given drug. Relative rescue describes the proportion of cells treated with drug+factor out of untreated cells. The higher this ratio, the stronger effect the factor has on drug resistance. Residual drug growth describes the proportion of cells growth under drug relative to no treatment condition. […] Finally, the rescue score (rScore) is the relative rescue after adding a penalty for drugs with low efficacy. […] Bliss Score (bScore) quantifies the extent of synergism between a given factor and a given drug. Factor effect describes the proportion (or probability) of cells killed by the factor. Drug effect describes the proportion (or probability) of cells killed by the drug. The observed killing effect (observed effect) describes the proportion (or probability) of cells killed by both factor and drug. Assuming drug killing and factor killing are independent events, the expected killing effect (expected effect) is the sum of probabilities D and F excluding events intersection (D*F), which represents a subpopulation of cells that may be sensitive to both the drug and factor. Finally, bliss score (bScore) is the delta between observed and expected killing multiplied by −1 to symbolize the expected decrease in the number of cancer cells following the addition of a factor. […] Upper panel—effect on cells proliferation. […] The number of experiments (out of 79) with pro-proliferative effect (pScore>30%) and anti-proliferative effect (pScore<−30%) were counted for each factor in the secretome library. […]

[2] = test system: BRAF (V600E) colorectal cancer cell lines; test: High-throughput secretome screen of GFP-labeled cells (rScore); settings: colorectal cell lines bearing BRAF (V600E); BRAF/MEK inhibitors
Procedure: (§1) Cell lines—All cell lines (Table 1 hereinbelow) were cultured in DMEM supplemented with 100 units/ml Penicillin and Streptomycin, 2 μmM Glutamine, 1 μmM Pyruvate and 10% FCS, and maintained in a humidified incubator at 37° C. and 5% CO2. Cells were routinely tested for Mycoplasma contamination by PCR. To generate stable cell lines constitutively expressing GFP, cells were infected with lentivirus bearing plasmid pLEX_TRC206 and sorted by FACS to enrich for GFP positive population. For the in-vitro experiments, human cancer cell lines which constitutively expressed GFP were treated with various cytotoxic and targeted drugs (see Table 1 hereinbelow); and the effect of different secreted factors (Table 2 hereinbelow) on the innate resistance to a drug based on the cells' GFP level was determined.
(§2) High throughput in-vitro screens—For high-throughput screens or drug dose curves, cells were counted by Vi-Cell XR (Beckman coulter). Cells were seeded on 384 wells plates (Corning, 3712) using the EL406 washer dispenser (BioTek). Liquid handling of medium and drugs was effected by CyBi (WellFlex vario, CyBio). GFP fluorescence of cells was measured at 477/517 nm (excitation/emission) using Cytation3 (BioTek). Due to fluorescence reading bias at plate margins and corners, these margins were discarded for analysis.
High-throughput secretome screens—To screen for the effect of secreted factors on the response of cell lines to different drugs, the following seven-days procedure was performed. On day 0, GFP expressing cells were seeded at 1500-2000 cells per well on 384-wells plates (Corning, 3712), depending on the cell line's proliferation rate. Each plate was seeded with one cell line. […] Cell fluorescence was read at days 1, 4 and 7 by Cytation3, and for some of the experiments at day 6 as well. […]
(2) Based on observations, the plate area spanning rows 4-13 and columns 4-21 was hardly affected by plate margins biases. […] Next, to capture row and column (col) biases for the i-th row and the j-th column, the bias factor was calculated: […]

[3] = test system: BRAF (V600E) melanoma cell lines; test: High-throughput secretome screen of GFP-labeled cells (rScore, bScore, ranks); settings: melanoma cell lines bearing BRAF (V600E); BRAF/MEK inhibitors
Procedure: as §1, §2
High-throughput secretome screens—To screen for the effect of secreted factors on the response of cell lines to different drugs, the following seven-days procedure was performed. On day 0, GFP expressing cells were seeded at 1500-2000 cells per well on 384-wells plates (Corning, 3712), depending on the cell line's proliferation rate. Each plate was seeded with one cell line. At day 1, each plate was treated with the secretome library (Table 2 hereinabove), one well per factor. Immediately afterwards, each plate was treated either with a drug (Table 1 hereinabove) at the EC90 concentration or with DMSO control. The CyBi liquid handler was used to treat each plate with a drug and the secretome library as well as to replace the medium, drug and secreted factors following 3 days of incubation (day 4). Cell fluorescence was read at days 1, 4 and 7 by Cytation3, and for some of the experiments at day 6 as well. Wells of interest were imaged at day 7 using the Operetta (PerkinElmer).
(2) Based on observations, the plate area spanning rows 4-13 and columns 4-21 was hardly affected by plate margins biases. This area is referred to herein as plate core. To control for row specific and column specific biases, plate outliers (Zscore>4 or Zscore<−4) and edges were masked. Next, to capture row and column (col) biases for the i-th row and the j-th column, the bias factor was calculated:
Upon QC completion, 199 experiment plates and 79 control (DMSO) plates were left for further analysis. • 4—Scoring methods-A GFP value for wells without secretome factors was obtained by averaging over the plate internal control wells. Those wells contained the solvents used in the secretome library. pScore: The effect of the secreted factors on proliferation under DMSO was evaluated using pScore (proliferation score). Values were given in percent units.
rScore: The effect of the secreted factors on resistance to anti-cancer drugs was evaluated using rScore (rescue score). rScore was assigned to a given factor under two conditions: • 1. drug effect was >30% (residual drug growth<0.7) • 2. proliferation ratio between factor treated and untreated cells in the presence of drug was higher than one:
rSscore=S−S*residual drug growth
Based on manual inspection of the rScore distribution across the data, the threshold for a potential effect on drug resistance was set to 0.2 (FIGS. 8A-D).
(*) Negative values were considered as zero. […] Groups with less than 4 experiments were discarded, finally resulting in 13 groups of experiments (FIG. 1E). […]

pERK in G361 cell line = test: In-cell western blot of pERK; settings: G361 cells treated with the BRAF inhibitor (vemurafenib 2 μM and trametinib 1 nM)
Procedure: PLX4720—BRAFi, 2 μM; PD184352—MEKi, 1 μM, EMAPII—50 ng/ml. P-value of the difference between GFP(drug)/GFP(no-treatment) and GFP(drug+EMAPII)/GFP(no-treatment), at day 7, was calculated by two-sided t-test. ** p<0.01, *** p<0.001. Average rScore (+/−SE) was calculated from at least four different experiments. […] A total of 69 experiments are shown. […] The effect of FGF2 (10 ng/ml), EMAPII (10 ng/ml) or AIMP1 (10 ng/ml) on G361 μmelanoma cells treated with vemurafenib (2 μM) was measured with or without the FGFR inhibitor PD17307 (0.5 μM). Data represent an average of 4 to 8 experiments. P-value was calculated by two-sided t-test. *** p<0.001. Error bars represent standard error. […] P-values were calculated by two-sided t-test relative to luciferase. * p<0.05, Q-value=0.1. […] P-value was calculated by two-sided t-test. *** p<0.001.
In-cell western blot—To validate that EMAPII mediates its effect on resistance to BRAF inhibition via the FGF receptors (FIG. 2G), the melanoma BRAF mutated cell line G361 was seeded in a 384-wells plate at a concentration of 16,000 cells per well. […] Finally, the plate was scanned with Odyssey (Li-cor) using microplate settings (169 μm, […]), and fluorescence intensity was quantified and normalized to the DRAQ level, and then to no drug control (DMSO).

Molecule	effect on proliferation (pScore) [1]	effect on drug resistance [2]	also measured
neuregulin-1	pro-proliferative	–	–
insulin: pro-proliferative secreted factor	pro-proliferative	–	–
FGF7: fibroblast growth factor 7, ligand of FGFR2IIIb (protein, UniProt P21781 32-194, looked up) Fibroblast growth factor 7: CNDMTPEQMATNVNCSSPERHTRSYDYMEGGDIRVRRLFCRTQWYLRIDKRGKVKGTQEMKNNYNIMEIRTVAVGIVAIKGVESEFYLAMNKEGKLYAKKECNEDCNFKELILENHYNTYASAKWTHNGGEMFVALNQKGIPVRGKKTKKEQKTAHFLPMAIT	–	could confer drug resistance to colorectal cancers	effect on drug resistance [3]: much smaller effect on melanoma cell lines
interferon gamma: anti-proliferative secreted factor (protein, UniProt P01579 24-161, looked up) Interferon gamma: QDPYVKEAENLKKYFNAGHSDVADNGTLFLGILKNWKEESDRKIMQSQIVSFYFKLFKNFKDDQSIQKSVETIKEDMNVKFFNSNKKKRDDFEKLTNYSVTDLNVQRKAIHELIQVMAELSPAAKTGKRKRSQMLFRG	anti-proliferative	–	–
FGF10: fibroblast growth factor 10, ligand of FGFR2IIIb (protein, UniProt O15520 38-208, looked up) Fibroblast growth factor 10: QALGQDMVSPEATNSSSSSFSSPSSAGRHVRSYNHLQGDVRWRKLFSFTKYFLKIEKNGKVSGTKKENCPYSILEITSVEIGVVAVKAINSNYYLAMNKKGKLYGSKEFNNDCKLKERIEENGYNTYASFNWQHNGRQMYVALNGKGAPRRGQKTRRKNTSAHFLPMVVHS	–	could confer drug resistance to colorectal cancers	effect on drug resistance [3]: much smaller effect on melanoma cell lines
AIMP1: aminoacyl tRNA synthetase complex interacting multifunctional protein 1 (protein, UniProt Q12904 2-312, looked up) Aminoacyl tRNA synthase …: ANNDAVLKRLEQKGAEADQIIEYLKQQVSLLKEKAILQATLREEKKLRVENAKLKKEIEELKQELIQAEIQNGVKQIPFPSGTPLHANSMVSENVIQSTAVTTVSSGTKEQIKGGTGDEKKAKEKIEKKGEKKEKKQQSIAGSADSKPIDVSRLDLRIGCIITARKHPDADSLYVEEVDVGEIAPRTVVSGLVNHVPLEQMQNRMVILLCNLKPAKMRGVLSQAMVMCASSPEKIEILAPPNGSVPGDRITFDAFPGEPDKELNPKKKIWEQIQPDLHTNDECVATYKGVPFEVKGKGVCRAQTMSNSGIK	–	–	pERK reactivation (pERK in G361 cell line): partially reactivate pERK
BTC: EGFR ligand beta-cellulin (protein, UniProt P35070 32-111, looked up) Betacellulin: DGNSTRSPETNGLLCGDPEENCAATTTQSKRKGHFSRCPKQYKHYCIKGRCRFVVAEQTPSCVCDEGYIGARCERVDLFY	–	mediate resistance only to the colorectal cell lines	–
